Measurements: the supplement of paper PMC9112550, “Optimization of the antimicrobial peptide Bac7 by deep mutational scanning” (BMC Biology, 2022)

tested on: Escherichia coli TOP10; experiment: shrunken log2 fold change of peptide-encoding DNA abundance (4.5 h post-induction vs induction); higher = less antimicrobial activity (less host growth inhibition); conditions: time post-induction: 4.5 h; library: site-saturation at positions 5, 18, 19, 20
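Further: peptides expressed intracellularly from a pBAD plasmid library in pooled LB shake-flask culture, induced with 0.3% L-arabinose, DNA abundance read by NGS, three biological replicates, DESeq2 with apeglm shrinkage.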

| Sequence | shrunken log2 fold change |
| --- | --- |
| RRIRRRPPRLPRPRPRPKCKPRP | -0.0255 |
| RRIRARPPRLPRPRPRPFNQPRP | -0.257 |
| RRIRCRPPRLPRPRPRPGHAPRP | 0.297 |
| RRIRRRPPRLPRPRPRPFEQPRP | 0.105 |
| RRIRVRPPRLPRPRPRPCFAPRP | 0.116 |
| RRIRVRPPRLPRPRPRPKFYPRP | -0.46 |
| RRIRRRPPRLPRPRPRPWCAPRP | 0.419 |
| RRIRFRPPRLPRPRPRPPQWPRP | 0.384 |
| RRIRNRPPRLPRPRPRPDFGPRP | -0.0978 |
| RRIRARPPRLPRPRPRPNHEPRP | 0.021 |
| RRIRNRPPRLPRPRPRPHEEPRP | -0.0188 |
| RRIRMRPPRLPRPRPRPRQVPRP | 0.388 |
| RRIRPRPPRLPRPRPRPYNWPRP | -0.731 |
| RRIRVRPPRLPRPRPRPRRIPRP | -0.0306 |
| RRIRERPPRLPRPRPRPDMLPRP | -0.166 |
| RRIRYRPPRLPRPRPRPWKPPRP | -0.2 |
| RRIRCRPPRLPRPRPRPPFSPRP | 0.236 |
| RRIRDRPPRLPRPRPRPSKQPRP | -0.257 |
| RRIRQRPPRLPRPRPRPMAFPRP | -0.0854 |
| RRIRCRPPRLPRPRPRPSCIPRP | -0.253 |
| RRIRIRPPRLPRPRPRPLIMPRP | -0.853 |
| RRIRWRPPRLPRPRPRPGMHPRP | 0.343 |

| Sequence | shrunken log2 fold change |
| --- | --- |
| RRIRRRPPRLPRPRPRPQLCPRP | 0.559 |
| RRIRMRPPRLPRPRPRPEIAPRP | 0.0315 |
| RRIRDRPPRLPRPRPRPNAPPRP | 0.209 |
| RRIRFRPPRLPRPRPRPESQPRP | -0.0723 |
| RRIRLRPPRLPRPRPRPAHIPRP | 0.0196 |
| RRIRGRPPRLPRPRPRPGFSPRP | 0.644 |
| RRIRERPPRLPRPRPRPWEHPRP | -0.221 |
| RRIRKRPPRLPRPRPRPFQFPRP | -0.018 |
| RRIRERPPRLPRPRPRPINWPRP | -0.169 |
| RRIRTRPPRLPRPRPRPTYMPRP | -0.32 |
| RRIRARPPRLPRPRPRPEKGPRP | -0.0434 |
| RRIRNRPPRLPRPRPRPNDEPRP | -0.227 |
| RRIRYRPPRLPRPRPRPLAEPRP | -0.149 |
| RRIRPRPPRLPRPRPRPLSNPRP | -0.1 |
| RRIRERPPRLPRPRPRPHRWPRP | 0.0978 |
| RRIRQRPPRLPRPRPRPHNKPRP | -0.599 |
| RRIRARPPRLPRPRPRPPTAPRP | 0.744 |
| RRIRIRPPRLPRPRPRPKQRPRP | 0.0202 |
| RRIRFRPPRLPRPRPRPGGLPRP | 0.217 |
| RRIRLRPPRLPRPRPRPELMPRP | 0.0527 |
| RRIRFRPPRLPRPRPRPVQGPRP | -0.169 |
| RRIRQRPPRLPRPRPRPQGKPRP | -0.0747 |

| Sequence | shrunken log2 fold change |
| --- | --- |
| RRIRLRPPRLPRPRPRPNFEPRP | 0.0189 |
| RRIRARPPRLPRPRPRPVTEPRP | 0.154 |
| RRIRIRPPRLPRPRPRPCYQPRP | -0.44 |
| RRIRIRPPRLPRPRPRPTETPRP | 0.0225 |
| RRIRIRPPRLPRPRPRPMNVPRP | -0.122 |
| RRIRGRPPRLPRPRPRPAFMPRP | 0.585 |
| RRIRIRPPRLPRPRPRPLWDPRP | -0.113 |
| RRIRHRPPRLPRPRPRPDAMPRP | -0.00187 |
| RRIRDRPPRLPRPRPRPETMPRP | 0.0179 |
| RRIRWRPPRLPRPRPRPDREPRP | -0.0009 |
| RRIRMRPPRLPRPRPRPECGPRP | 2.7 |
| RRIRHRPPRLPRPRPRPFVSPRP | -0.19 |
| RRIRGRPPRLPRPRPRPASEPRP | 1.13 |
| RRIRTRPPRLPRPRPRPMEMPRP | -0.236 |
| RRIRHRPPRLPRPRPRPTGCPRP | -0.0228 |
| RRIRFRPPRLPRPRPRPQDIPRP | -0.0714 |
| RRIRSRPPRLPRPRPRPGWHPRP | 0.234 |
| RRIRSRPPRLPRPRPRPDCKPRP | -0.0745 |
| RRIRDRPPRLPRPRPRPCFRPRP | -0.157 |
| RRIRVRPPRLPRPRPRPIPEPRP | -0.0974 |
| RRIRERPPRLPRPRPRPFYGPRP | 0.015 |
| RRIRFRPPRLPRPRPRPLLQPRP | 0.0394 |

| Sequence | shrunken log2 fold change |
| --- | --- |
| RRIRPRPPRLPRPRPRPTVPPRP | -0.0252 |
| RRIRIRPPRLPRPRPRPCQYPRP | -1.06 |
| RRIRHRPPRLPRPRPRPYMKPRP | -0.541 |
| RRIRFRPPRLPRPRPRPILPPRP | -0.188 |
| RRIRARPPRLPRPRPRPFKFPRP | 0.0771 |
| RRIRTRPPRLPRPRPRPFPFPRP | -0.406 |
| RRIRKRPPRLPRPRPRPHNCPRP | 0.0806 |
| RRIRVRPPRLPRPRPRPMMYPRP | 0.00519 |
| RRIRTRPPRLPRPRPRPMHWPRP | 0.209 |
| RRIRWRPPRLPRPRPRPECQPRP | -0.0508 |
| RRIRSRPPRLPRPRPRPCNSPRP | -0.0626 |
| RRIRFRPPRLPRPRPRPPSCPRP | 0.337 |
| RRIRHRPPRLPRPRPRPCKVPRP | -0.0825 |
| RRIRWRPPRLPRPRPRPKQDPRP | 0.00878 |
| RRIRLRPPRLPRPRPRPNVDPRP | -0.492 |
| RRIRGRPPRLPRPRPRPQCEPRP | 1.31 |
| RRIRIRPPRLPRPRPRPWCVPRP | -0.698 |
| RRIRKRPPRLPRPRPRPTEWPRP | 0.0407 |
| RRIRHRPPRLPRPRPRPRWSPRP | 0.00212 |
| RRIRARPPRLPRPRPRPRYMPRP | -0.365 |
| RRIRWRPPRLPRPRPRPRMTPRP | 0.394 |
| RRIRVRPPRLPRPRPRPHKAPRP | -0.0103 |

| Sequence | shrunken log2 fold change |
| --- | --- |
| RRIRGRPPRLPRPRPRPYDAPRP | -0.317 |
| RRIRHRPPRLPRPRPRPHCQPRP | -0.0776 |
| RRIRMRPPRLPRPRPRPNGDPRP | 0.297 |
| RRIRERPPRLPRPRPRPVEKPRP | -0.0163 |
| RRIRDRPPRLPRPRPRPHVPPRP | -0.076 |
| RRIRPRPPRLPRPRPRPMTIPRP | -0.421 |
| RRIRARPPRLPRPRPRPFSYPRP | -0.0901 |
| RRIRGRPPRLPRPRPRPGVAPRP | 1.53 |
| RRIRTRPPRLPRPRPRPSYMPRP | -1.28 |
| RRIRNRPPRLPRPRPRPAQPPRP | -0.0398 |
| RRIRTRPPRLPRPRPRPMPGPRP | 0.106 |
| RRIRKRPPRLPRPRPRPFWFPRP | 0.247 |
| RRIRWRPPRLPRPRPRPWIAPRP | -0.11 |
| RRIRNRPPRLPRPRPRPKRDPRP | 0.411 |
| RRIRHRPPRLPRPRPRPWHQPRP | -0.0658 |
| RRIRQRPPRLPRPRPRPADWPRP | 0.258 |
| RRIRGRPPRLPRPRPRPMHGPRP | 0.36 |
| RRIRARPPRLPRPRPRPITCPRP | -0.119 |
| RRIRMRPPRLPRPRPRPSMQPRP | 0.345 |
| RRIRERPPRLPRPRPRPSVSPRP | -0.335 |
| RRIRHRPPRLPRPRPRPQWTPRP | -0.00992 |
